Patent US20250195679A1 (SHANGHAI HUAOTA BIOPHARMACEUTICAL, published 2025)
Read-outs that look alike come from different tables or passages of the source.

What was measured:
[1] = target: T1, CD73 on the surface of Calu6 cells (UniProt P21589 27-549); experiment: cell-based or functional assay
T1 sequence (looked up): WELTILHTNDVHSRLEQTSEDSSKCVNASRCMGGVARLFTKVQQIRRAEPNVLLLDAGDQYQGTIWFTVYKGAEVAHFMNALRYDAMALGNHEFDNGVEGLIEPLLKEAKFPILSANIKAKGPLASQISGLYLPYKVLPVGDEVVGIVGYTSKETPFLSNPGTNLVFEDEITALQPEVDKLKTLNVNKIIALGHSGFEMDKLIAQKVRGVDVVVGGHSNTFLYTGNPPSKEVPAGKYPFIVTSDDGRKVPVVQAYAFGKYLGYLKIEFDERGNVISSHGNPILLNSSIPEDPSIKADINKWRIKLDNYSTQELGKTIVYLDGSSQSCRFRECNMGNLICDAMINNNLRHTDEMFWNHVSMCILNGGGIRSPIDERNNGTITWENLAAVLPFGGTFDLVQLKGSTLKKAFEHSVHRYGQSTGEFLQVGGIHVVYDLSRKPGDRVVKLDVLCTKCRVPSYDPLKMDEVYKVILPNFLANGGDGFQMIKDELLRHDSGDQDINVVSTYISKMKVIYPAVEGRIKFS

[2] = target: T1, CD73 on the surface of Calu6 cells; experiment: flow cytometry on Calu6 cells, antibody at 1 ug/mL, kept at 4 C, PE anti-human IgG Fc detection
Method: The endocytosis efficiency of monoclonal antibodies 900698 and 900725 was compared through an endocytosis assay, with the procedures as follows: Anti-CD73 antigen-binding proteins such as the CD73 positive control antibody BMS-986179, 900698, and 900725 were diluted to 1 μg/mL with a PBS solution, with 2 replicate wells set up for each concentration. Calu6 cells in the logarithmic growth phase were taken and prepared into a cell suspension at 2× 10⁵ cells/mL. The cell suspension was then added at 100 μL (about 20000 cells) per well to a 96-well U-bottom plate and centrifuged at 300 g for 3 min, and then the supernatant was discarded. Then, the diluted antigen-binding proteins were each added at 100 μL/well to resuspend the cells, and the mixture was mixed uniformly and incubated at 4° C. for 30 min. After the incubation was completed, the mixture was centrifuged at 300 g for 3 min, and then the supernatant was discarded. The cells were then resuspended in 1% BSA, with half incubated at 37° C. and the other half at 4° C., for an incubation time of 5 h. After the incubation was completed, the wells corresponding to the specified time were removed. The cells in these wells were centrifuged at 300 g for 3 min, and then the supernatant was discarded. PE anti-hulgG Fc (1:200) was then added at 50 μL/well, and the mixture was mixed uniformly and allowed to react at 4° C. for 30 min. After the incubation was completed, the cells were washed twice and centrifuged at 300 g for 3 min, and the fluorescence intensity was detected by flow cytometry. The assay results for the endocytosis of CD73 on the cell surface induced by the anti-CD73 antigen-binding proteins are shown in Table 5 below and FIG. 9. […] 34%. In FIG. 9, the results for BMS-986179, 900725, and 900698 are represented as 1-3, respectively, and NC indicates the result for the condition that only a 1% BSA solution was added without any antibody or antibody-drug conjugate.

[3] = target: T2, human CD73 protein (ACRO Biosystems, Cat. No. CD3-H52H7) (human, UniProt P21589 27-547); experiment: SPR (Biacore T200), antibody captured on protein A chip, CD73 as analyte, 1:1 model
T2 construct: Bought protein; also called recombinant CD73 protein; soluble recombinant CD73 antigen protein
T2 sequence (looked up): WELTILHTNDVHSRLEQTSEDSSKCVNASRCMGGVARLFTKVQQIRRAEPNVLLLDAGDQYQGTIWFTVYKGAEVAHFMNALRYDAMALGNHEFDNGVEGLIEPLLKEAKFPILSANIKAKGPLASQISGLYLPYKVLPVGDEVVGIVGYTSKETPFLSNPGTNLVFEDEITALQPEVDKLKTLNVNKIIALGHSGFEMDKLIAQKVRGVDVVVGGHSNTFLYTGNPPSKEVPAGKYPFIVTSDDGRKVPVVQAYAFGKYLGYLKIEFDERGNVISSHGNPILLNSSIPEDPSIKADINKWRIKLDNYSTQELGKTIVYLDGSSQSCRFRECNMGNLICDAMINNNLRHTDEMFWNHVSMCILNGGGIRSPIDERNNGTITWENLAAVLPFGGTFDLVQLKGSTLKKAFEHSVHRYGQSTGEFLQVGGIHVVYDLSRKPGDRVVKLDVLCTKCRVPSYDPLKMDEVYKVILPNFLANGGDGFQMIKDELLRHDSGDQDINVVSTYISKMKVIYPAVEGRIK
Method: (§1) The binding kinetics of the antibody-drug conjugate 1 and the antibody-drug conjugate 2 prepared in Example 1 and the 900698 naked antibody with a human CD73 protein (manufacturer: ACRO Biosystems, Cat. No. CD3-H52H7) and a monkey CD73 protein (manufacturer: Novoprotein, Cat. No. CI21) were assayed using Biacore (GE, model: T200), with an assay buffer of HBS-EP+ (pH 7.4) and a protein A chip (manufacturer: GE, Cat. No. 29-1275-56).
(§2) The temperature for the sample compartment and the flow path was set to 25° C. The protein A chip captured each antigen-binding protein as a ligand, fixing about 100 RU. The human CD73 protein was diluted with the assay buffer to a series of concentrations of 50 nM, 25 nM, 12.5 nM, 6.25 nM, 3.12 nM, and 1.57 nM, serving as analytes, and the assay buffer was used as a 0 concentration control. At a flow rate of 30 μL/min, association was conducted for 120 s, and dissociation was conducted for 600 s. Glycine (10 mM, pH 1.5) was used for regeneration at a flow rate of 50 μL/min for 60 s in a multi-cycle kinetic assay. A 1:1 binding model was used, and the Fit Local mode was selected to determine the association rate constant (ka), dissociation rate constant (kd), and equilibrium dissociation constant (KD).

[4] = target: T3, monkey CD73 protein (Novoprotein, Cat. No. CI21) (monkey); experiment: as above
T3 construct: Bought protein
Method: as §1, §2

[5] = target: T4, human CD73 expressed on CHOK1-huCD73-3F4 cells (human, UniProt P21589 27-549); experiment: flow cytometry (PE-MFI, PE-goat anti-human-Fc) on CHOK1-huCD73-3F4 cells expressing human CD73; four-parameter fit table under the curves, unit from the concentration axis
T4 construct: whole, on cells; also called cells expressing human CD73 (CHOK1-huCD73-3F4, Huabo Biopharm); CD73 antigen on the cell surface
T4 sequence (looked up): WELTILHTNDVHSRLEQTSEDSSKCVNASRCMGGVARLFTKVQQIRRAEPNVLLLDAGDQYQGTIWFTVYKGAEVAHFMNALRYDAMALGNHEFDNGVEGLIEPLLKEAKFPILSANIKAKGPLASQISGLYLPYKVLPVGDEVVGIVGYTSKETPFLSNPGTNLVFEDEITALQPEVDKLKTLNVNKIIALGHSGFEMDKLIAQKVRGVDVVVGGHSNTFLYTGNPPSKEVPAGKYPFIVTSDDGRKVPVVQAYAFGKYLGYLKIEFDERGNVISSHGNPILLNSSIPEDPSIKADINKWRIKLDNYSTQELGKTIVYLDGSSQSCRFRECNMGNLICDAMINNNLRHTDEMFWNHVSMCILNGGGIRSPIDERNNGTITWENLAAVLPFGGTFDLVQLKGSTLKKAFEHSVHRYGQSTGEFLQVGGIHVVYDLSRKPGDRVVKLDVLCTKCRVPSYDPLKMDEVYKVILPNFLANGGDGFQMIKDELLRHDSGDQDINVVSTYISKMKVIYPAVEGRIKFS
Method: The binding activity of the antibody-drug conjugate 1 and the antibody-drug conjugate 2 prepared in Example 1 and the 900698 naked antibody to cells expressing human CD73 (CHOK1-huCD73-3F4, Huabo Biopharm) was assayed.
All antigen-binding proteins were diluted to 30 μg/mL with a solution of 1% BSA in PBS (1% BSA/PBS), followed by a 3-fold dilution across 10 gradients. The diluted proteins were each added at 20 μL per well to a 96-well U-bottom plate, with a negative control (adding only 1% BSA/PBS) set up simultaneously. A suspension of cells expressing human CD73 (CHOK1-huCD73-3F4, Huabo Biopharm) in the logarithmic growth phase was taken and centrifuged (1000 rpm×5 min), and then the culture medium was discarded. The cells were resuspended in 1% BSA/PBS until the viable cell density was 1×10⁶ cells/mL, then added at 20 μL (2×10⁴ cells) per well to the 96-well U-bottom plate containing the anti-CD73 antigen-binding proteins, and incubated at room temperature for reaction for 30 min. The reacted cells in the 96-well U-bottom plate were resuspended in 1% BSA/PBS and centrifuged (300 g×3 min), and then the supernatant was discarded. This washing process was performed once. Then, a 1:200 dilution of PE-goat anti-human-Fc (Jackson ImmunoResearch, #109-115-098) was added, and the cells were incubated in the dark at room temperature for reaction for 15 min. The reacted cells in the 96-well U-bottom plate were further resuspended in 1% BSA/PBS and centrifuged (300 g×3 min), and then the supernatant was discarded. This washing process was performed 3 times. Finally, the cells were resuspended in 100 μL of 1% BSA/PBS per well, and the fluorescence intensity in the PE channel was detected using a flow cytometer (BD, #Canto II).

[6] = target: T1, CD73 on the surface of Calu6 cells; experiment: cell-based or functional assay; remark: listed apart in the source
[7] = target: T2, human CD73 protein (ACRO Biosystems, …); experiment: cell-based or functional assay

B1: BMS-986179 (antibody, human IgG1, kappa, L234A L235A, V domains shown)
VH: QVQLVESGGGVVQPGRSLRLSCAASGFTFSNYGMHWVRQAPGKGLEWVAVILYDGSNKYYPDSVKGRFTISRDNSKNTLYLQMNSLRAEDTAVYYCARGGSSWYPDSFDIWGQGTMVTVSS
VL: DIQMTQSPSSLSASVGDRVTITCRASQGISSWLAWYQQKPEKAPKSLIYAASSLQSGVPSRFSGSGSGTDFTLTISSLQPEDFATYYCQQYNSYPLTFGGGTKVEIKR
notes: also called CD73 positive control antibody BMS-986179
Endocytosis efficiency (%) [1]: 44.2%
fluorescence intensity of surface antibody after 5 h at 37° C. (flow cytometry, Calu6 cells) [1]: 14400
fluorescence intensity at 4° C. [2]: 25700

B2: 900698 antibody (antibody, V domains shown)
VH: QVQLVESGGGLVKPGGSLRLSCAASGFTFSKYAMSWIRQAPGKGLEWVAEISSGGGYINYADSVKGRFTISRDNAKNSLYLQMNSLRAEDTAVYYCARAIYYYGSSYNYYAMDYWGQGTTVTVSS
VL: DIQMTQSPSSLSASVGDRVTITCRASQDVGTAEAWYQQKPGKAPKLLIYWASTRHTGVPSRFSGSGSGTDFTLTISSLQPEDFATYYCQQYSSYPLTFGQGTKLEIK
notes: embodiments say they may derive from human IgG1 and human Ig kappa; It was detected with anti-human Fc and captured on protein A; also called 900698 naked antibody; naked antibody 900698
Endocytosis efficiency (%) [1]: 96.3%
fluorescence intensity of surface antibody after 5 h at 37° C. (flow cytometry, Calu6 cells) [1]: 359
Kd [3]: 0.711 nM
koff [3]: 0.000104 s⁻¹
kon [3]: 147000 M⁻¹ s⁻¹
Kd [4]: 0.121 nM
koff [4]: 1.8e-05 s⁻¹
kon [4]: 148000 M⁻¹ s⁻¹
fluorescence intensity at 4° C. [2]: 8940
EC50 [5]: 1.01 µg/mL
Endocytosis efficiency (%) [6]: 95.4%
IC50, inhibition of the enzymatic activity of recombinant CD73 (AMP/ATP, CellTiter-Glo signal) [7]: 0.352 µg/mL

B3: CD73 antibody-Mc-VC-PAB-DMEDA-PEG-SN38 (antibody, V domains shown)
VH: QVQLVESGGGLVKPGGSLRLSCAASGFTFSKYAMSWIRQAPGKGLEWVAEISSGGGYINYADSVKGRFTISRDNAKNSLYLQMNSLRAEDTAVYYCARAIYYYGSSYNYYAMDYWGQGTTVTVSS
VL: DIQMTQSPSSLSASVGDRVTITCRASQDVGTAEAWYQQKPGKAPKLLIYWASTRHTGVPSRFSGSGSGTDFTLTISSLQPEDFATYYCQQYSSYPLTFGQGTKLEIK
modifications: SN-38 conjugated through Mc-VC-PAB-DMEDA-PEG linker by cysteine conjugation; DAR about 7.8 for the whole antibody; conjugated cysteines not named
notes: the constant regions that carry the conjugated cysteines are not; also called antibody-drug conjugate 1
Kd [3]: 0.339 nM
koff [3]: 0.000129 s⁻¹
kon [3]: 381000 M⁻¹ s⁻¹
Kd [4]: 0.0349 nM
koff [4]: 1.92e-06 s⁻¹
kon [4]: 55000 M⁻¹ s⁻¹
EC50 [5]: 0.659 µg/mL
Endocytosis efficiency (%) [6]: 95.6%
IC50, inhibition of the enzymatic activity of recombinant CD73 (AMP/ATP, CellTiter-Glo signal) [7]: 0.587 µg/mL

B4: CD73 antibody-MP2-VC-PAB-DMEDA-PEG-SN38 (antibody, V domains shown)
VH: QVQLVESGGGLVKPGGSLRLSCAASGFTFSKYAMSWIRQAPGKGLEWVAEISSGGGYINYADSVKGRFTISRDNAKNSLYLQMNSLRAEDTAVYYCARAIYYYGSSYNYYAMDYWGQGTTVTVSS
VL: DIQMTQSPSSLSASVGDRVTITCRASQDVGTAEAWYQQKPGKAPKLLIYWASTRHTGVPSRFSGSGSGTDFTLTISSLQPEDFATYYCQQYSSYPLTFGQGTKLEIK
modifications: SN-38 conjugated through MP2-VC-PAB-DMEDA-PEG linker by cysteine conjugation; DAR about 7.8 for the whole antibody; conjugated cysteines not named
notes: the constant regions that carry the conjugated cysteines are not; also called antibody-drug conjugate 2
Kd [3]: 0.354 nM
koff [3]: 0.000228 s⁻¹
kon [3]: 643000 M⁻¹ s⁻¹
Kd [4]: 0.252 nM
koff [4]: 0.000114 s⁻¹
kon [4]: 454000 M⁻¹ s⁻¹
EC50 [5]: 0.67 µg/mL
Endocytosis efficiency (%) [6]: 95.8%
IC50, inhibition of the enzymatic activity of recombinant CD73 (AMP/ATP, CellTiter-Glo signal) [7]: 0.553 µg/mL

B5: 900725 antibody (antibody, V domains shown)
VH: QVQLVQSGAEVKKPGASVKLSCKASGYTFTSYWIHWVRQAPGQGLEWIGMIHPNSGSTYYNEKFKGRATLTVDKSTSTAYMELSSLRSEDTAVYYCARYYGSDYEWYFDVWGQGTTVTVSS
VL: DIQMTQSPSSMSASVGDRVTITCKASQNVRTAVVWYQQKPGKAPKALIYLASNRHTGVPDRFSGSGSGTDFTLTISSLQPEDFATYFCLQHWNYPYTFGQGTKLEIK
notes: It was detected with anti-human IgG Fc; also called anti-CD73 antibody 900725
Endocytosis efficiency (%) [1]: 37.5%
fluorescence intensity of surface antibody after 5 h at 37° C. (flow cytometry, Calu6 cells) [1]: 8710
fluorescence intensity at 4° C. [2]: 13900
